Laboratory results published in the supplement of paper PMC7877785.
± gives the uncertainty stated by the source.

Assay: self-splicing fitness, log relative to wild type (ln ratio); higher = more splicing; Tetrahymena group I intron in knt gene, E. coli kanamycin selection, DiMSum; sequences stand for … in CUCUCU…GGAGGGAAAAGUUAUCAGGCAUGCACCUGGUAGCUAGUCUUUAAACCAAUAGAUUGCAUCGGUUUAAAAGGCAAGACCGUCAAAUUGCGGGAAAGGGGUCAACAGCCGUUCAGUACCAAGUCUCAGGGGAAACUUUGAGAUGGCCUUGCAAAGGGUAUGGUAAUAAGCUGACGGACAUGGUCCUAACCACGCAGCCAAGUCCUAAGUCAACAGAUCUUCUGUUGAUAUGGAUGCAGUUCACAGACUAAAUGUCGGUCGGGGAAGAUGUAUUCUUCUCAUAAGAUAUAGUCGGACCUCUCCUUAAUGGGAGCUAGCGGAUGAAGUGAUGCAACACUGGAGCCGCUGGGAACUAAUUUGUAUGCGAAAGUAUAUUGAUUAGUUUUGGAGUACUCGUGGUCG
How it was run: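 Six replicate transformations of E. coli BL21(DE3) with a pET-22b(+) library were grown overnight at 37°C or 30°C. The library randomised all eight P1ex-region intron nucleotides, the intron lying in the knt kanamycin-resistance gene, and plates were LB agar with or without 25 μg/mL kanamycin plus 100 μg/mL carbenicillin, 50 μM IPTG and 0.2% rhamnose. Pooled colonies were amplicon-sequenced on an Illumina HiSeq 2500, and fitness is the DiMSum error-weighted combination of wild-type-normalised replicate fold changes, kanamycin versus none.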

Sequence	self-splicing fitness (ln) (30 °C)	self-splicing fitness (ln) (37 °C)
UCAGAGCAAUAUUACGUUGG	-3.05 ± 0.21	-2.9 ± 0.35
UACAAGCAAUAUUACGGAUU	-3.61 ± 0.15	-0.762 ± 0.09
GCUUAGCAAUAUUACGCGGG	-3.43 ± 0.22	-2.82 ± 0.32
ACCGAGCAAUAUUACGAUCC	-2.86 ± 0.34	-1.94 ± 0.29
CCUGAGCAAUAUUACGGGCA	-2.93 ± 0.19	-1.83 ± 0.17
AGUCAGCAAUAUUACGGCAC	-0.122 ± 0.093	-0.255 ± 0.14
UAAAAGCAAUAUUACGAAAC	-2.8 ± 0.19	-3.3 ± 0.43
GACGAGCAAUAUUACGCGUG	-3.11 ± 0.29	-1.77 ± 0.21
UCGUAGCAAUAUUACGUAUG	-2.04 ± 0.14	-1.93 ± 0.2
UUCCAGCAAUAUUACGCGCA	-0.0641 ± 0.12	-0.358 ± 0.14
CUAGAGCAAUAUUACGAGUG	-0.496 ± 0.067	-0.868 ± 0.085
AGCUAGCAAUAUUACGCCGU	-1.23 ± 0.13	-1.2 ± 0.16
CUGUAGCAAUAUUACGUCGC	-2.89 ± 0.28	-3.19 ± 0.4
CCCAAGCAAUAUUACGGCAC	-4.31 ± 0.36	-2.5 ± 0.21
UCGGAGCAAUAUUACGUCAG		-1.11 ± 0.34
CAUCAGCAAUAUUACGACAG	0.0306 ± 0.087	0.00869 ± 0.13
UGUCAGCAAUAUUACGGGCC	-0.854 ± 0.12	-0.00781 ± 0.16
GACUAGCAAUAUUACGAGGA	-2.29 ± 0.17	-1.43 ± 0.14
CUUGAGCAAUAUUACGCCAC	-2.82 ± 0.49	
GCGGAGCAAUAUUACGAACU		-0.902 ± 0.47

Sequence	self-splicing fitness (ln) (30 °C)	self-splicing fitness (ln) (37 °C)
CAGCAGCAAUAUUACGUCGA	-1.73 ± 0.12	-1.25 ± 0.11
AUUCAGCAAUAUUACGCUUC	-2.28 ± 0.15	-1.76 ± 0.18
UUCGAGCAAUAUUACGUACA	-2.27 ± 0.22	-1.81 ± 0.15
GCUUAGCAAUAUUACGGAGA	-2.02 ± 0.14	-0.596 ± 0.12
CAUCAGCAAUAUUACGGAGA	-1.78 ± 0.14	-1.3 ± 0.12
CACUAGCAAUAUUACGUUAG	-3.34 ± 0.14	-2.92 ± 0.17
GAGCAGCAAUAUUACGUGUC	-2.9 ± 0.12	-2.01 ± 0.12
GGGAAGCAAUAUUACGGCCG	-0.164 ± 0.12	-0.0913 ± 0.15
GUGGAGCAAUAUUACGGGAG	-3.74 ± 0.37	-1.8 ± 0.3
UGAUAGCAAUAUUACGAGCU	-1.44 ± 0.15	-0.828 ± 0.17
AACGAGCAAUAUUACGGUAA	-4.2 ± 0.42	-2.47 ± 0.28
GUCGAGCAAUAUUACGGCGG		-2.67 ± 0.41
AGUCAGCAAUAUUACGUAAA	-1.71 ± 0.12	-0.231 ± 0.11
UUCAAGCAAUAUUACGAAUU	-3.21 ± 0.24	-1.69 ± 0.27
CUCUAGCAAUAUUACGCAGC	-3.2 ± 0.25	
AGCAAGCAAUAUUACGAUUU	-0.00633 ± 0.054	0.677 ± 0.08
CCUAAGCAAUAUUACGAACA	-3.01 ± 0.29	-1.96 ± 0.32
GGAUAGCAAUAUUACGCUAU		-2.05 ± 0.31
UGCAAGCAAUAUUACGCUUU	-3.45 ± 0.21	-1.85 ± 0.2
ACUUAGCAAUAUUACGUUAU	-3.66 ± 0.22	-1.31 ± 0.16
